Measured values taken from article PMC11429891.

Biological target: human recombinant SNAP25 (Synaptosomal Associated Protein 25) (human), P60880
Experiment: SPR

Chain of human recombinant SNAP25 (Synaptosomal Associated Protein 25) (human), P60880 (P60880 whole entry): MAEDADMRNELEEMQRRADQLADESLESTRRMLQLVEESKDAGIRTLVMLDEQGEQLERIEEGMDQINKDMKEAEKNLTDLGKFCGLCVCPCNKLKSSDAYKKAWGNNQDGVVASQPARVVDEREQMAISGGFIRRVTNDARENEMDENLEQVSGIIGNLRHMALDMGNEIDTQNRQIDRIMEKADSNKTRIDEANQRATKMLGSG

B1: Bovine Type VI Collagen (complex)
chain 1: not shown
chain 2: QQQEVISPGPSDRNSCPEKADCPVHVYFVLDTSESITMQSPTDSLLYHMQQFVLQFISQLQDELYLDQVALSWRYGGLHFSDLVEVFSPPGSDRASFTKSLQSISSFRRGTFTDCMLANMTQEVRRHVGKGVVNFAVVITDGHVTGSPCGGIKLQAERAREEGIRLFAVPPNLKLNEQGLRDIANTPHELYRNNYATMRPDSTEIDQDTINRIIKVMKHEAYGECYKVSCLEIPGPPGPKGYRGQKGAKGNMGEPGEPGQKGRQGDPGIEGPIGFPGPKGVPGFKGEKGEFGADGRKGAPGLAGKNGTDGQKGKLGRIGPPGCKGDTGDRGPDGYVGEAGSPGERGDQGSKGDPGRPGRRGPPGENGAKGSKGYQGNNGAPGSPGLKGAKGGPGPRGPKGEPGRRGDPGTKGGPGSDGPKGEKGDPGPEGPRGLAGEVGNKGAKANRGLPGPRGPQGTVGEPGKQGSRGDPGDAGPRGDSGQPGPKGDPGRPGFSYPGPRGAPGDKGEPGPPGPEGGRGDFGSKGEPGRKGQKGEPADPGPPGEPGPRGQRGAPGPEGEPGPPGDPGLTECDVMTYVRETCGCCDCEKRCGALDVVFVIDSSESIGYTNFTLEKNFVINVVNRLGAIAKDPKSETGTRVGVVQYSHEGTFEAIQLDDERIDSLSSFKEAVKNLEWIAGGTWTPSALKFAYNKLIKESRRQKTRVFAVVITDGRHDPRDDDLNLRALCNHEVTVTAIGIGDMFHEKHESENLYSIACDKPQQVRNMTLFSDLVAEKFIDDMEDVLCPDPQIVCPDLPCQTELYVAQCTQRPVDIVFLLDGSERLGEQNFHKVRRFVEEVSRRLTLARKDDDPLNARVALLQFGGPREQQVAFPLTSNLTVIQEALASARYLNSFSHVGTGIVQAINQVVQGARAGARRHAELSFVFLTDGVTGNDSLDEAVHSMRKQNVVPTVVAVGSDVDTDVLSKISLGDPAAVFREKDYDSLAQPGFFDRFIRWIC
chain 3: not shown
  Kd: 15 nM
